Data from US20210269533A1 (SAMSUNG ELECTRONICS, published 2021).

How the values were obtained:
human c-Met protein [1] = target: T1, human c-Met protein (human, UniProt P08581 25-932, limits assumed); assay: SPR (Biacore), antibody immobilized on CM5 chip, human c-Met protein injected at 0.39-100 nM
T1 construct: also called c-Met antigen
Experimental: (§1) Affinities of the 4 types of antibodies against c-Met antigen prepared in Example 7 were measured by using a Biacore (GE healthcare). About 80 to 110 RU of each antibody was immobilized on a CM5 chip, 9 different concentrations ranging from 0.39 nM to 100 nM of human c-Met protein, as an antigen, were injected at a rate of 30 ul/min to obtain kₒₙ values and koff values as shown in Table 3. Then, KD values were calculated based thereon.

[2] = target: c-Met on cancer cells (MKN45 gastric cancer cells; NCI-H441 lung cancer cells) (human, UniProt P08581 25-1390); assay: cell-based or functional assay
human c-Met protein [3] = target: T1, human c-Met protein; assay: SPR (Biacore), ratio of KD values of Table 3
Experimental: as §1

c-Met on cancer cells (MKN45 gastric cancer cells; NCI-H441 lung cancer cells), sequence (P08581 25-1390): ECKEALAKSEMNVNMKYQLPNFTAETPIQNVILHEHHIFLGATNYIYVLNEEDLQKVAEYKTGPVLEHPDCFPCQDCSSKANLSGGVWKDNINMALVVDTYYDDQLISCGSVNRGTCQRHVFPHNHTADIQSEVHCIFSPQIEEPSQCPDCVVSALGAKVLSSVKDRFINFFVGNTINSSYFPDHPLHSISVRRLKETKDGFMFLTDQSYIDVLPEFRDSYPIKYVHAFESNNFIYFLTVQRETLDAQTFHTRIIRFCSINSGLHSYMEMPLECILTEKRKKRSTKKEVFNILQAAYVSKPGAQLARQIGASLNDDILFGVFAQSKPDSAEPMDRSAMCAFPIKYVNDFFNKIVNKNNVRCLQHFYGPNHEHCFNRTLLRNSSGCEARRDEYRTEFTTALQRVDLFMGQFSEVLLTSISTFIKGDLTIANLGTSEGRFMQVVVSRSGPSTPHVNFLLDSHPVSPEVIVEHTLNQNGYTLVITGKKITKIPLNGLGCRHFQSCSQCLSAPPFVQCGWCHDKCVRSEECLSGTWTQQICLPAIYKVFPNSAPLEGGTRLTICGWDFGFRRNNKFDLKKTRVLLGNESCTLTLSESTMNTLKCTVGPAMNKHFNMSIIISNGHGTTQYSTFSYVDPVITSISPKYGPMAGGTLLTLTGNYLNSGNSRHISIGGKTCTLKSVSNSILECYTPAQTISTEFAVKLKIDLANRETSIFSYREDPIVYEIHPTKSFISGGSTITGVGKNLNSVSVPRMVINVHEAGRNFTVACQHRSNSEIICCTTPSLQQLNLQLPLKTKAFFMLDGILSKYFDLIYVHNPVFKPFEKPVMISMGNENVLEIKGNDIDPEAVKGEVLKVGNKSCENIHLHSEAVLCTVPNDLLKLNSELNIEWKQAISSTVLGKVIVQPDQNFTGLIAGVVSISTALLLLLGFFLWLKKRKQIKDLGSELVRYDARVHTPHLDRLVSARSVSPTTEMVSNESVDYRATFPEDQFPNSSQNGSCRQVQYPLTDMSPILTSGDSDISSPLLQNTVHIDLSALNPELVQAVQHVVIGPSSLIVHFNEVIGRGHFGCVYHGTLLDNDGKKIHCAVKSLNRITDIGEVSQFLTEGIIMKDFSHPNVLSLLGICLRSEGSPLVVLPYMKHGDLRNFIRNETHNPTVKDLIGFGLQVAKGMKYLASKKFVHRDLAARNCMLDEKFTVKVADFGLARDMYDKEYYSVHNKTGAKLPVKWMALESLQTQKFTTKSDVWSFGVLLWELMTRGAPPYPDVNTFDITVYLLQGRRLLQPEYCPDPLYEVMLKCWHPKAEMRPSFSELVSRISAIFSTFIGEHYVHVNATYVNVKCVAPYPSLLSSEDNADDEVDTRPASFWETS
T1 sequence (P08581 25-932 limits assumed): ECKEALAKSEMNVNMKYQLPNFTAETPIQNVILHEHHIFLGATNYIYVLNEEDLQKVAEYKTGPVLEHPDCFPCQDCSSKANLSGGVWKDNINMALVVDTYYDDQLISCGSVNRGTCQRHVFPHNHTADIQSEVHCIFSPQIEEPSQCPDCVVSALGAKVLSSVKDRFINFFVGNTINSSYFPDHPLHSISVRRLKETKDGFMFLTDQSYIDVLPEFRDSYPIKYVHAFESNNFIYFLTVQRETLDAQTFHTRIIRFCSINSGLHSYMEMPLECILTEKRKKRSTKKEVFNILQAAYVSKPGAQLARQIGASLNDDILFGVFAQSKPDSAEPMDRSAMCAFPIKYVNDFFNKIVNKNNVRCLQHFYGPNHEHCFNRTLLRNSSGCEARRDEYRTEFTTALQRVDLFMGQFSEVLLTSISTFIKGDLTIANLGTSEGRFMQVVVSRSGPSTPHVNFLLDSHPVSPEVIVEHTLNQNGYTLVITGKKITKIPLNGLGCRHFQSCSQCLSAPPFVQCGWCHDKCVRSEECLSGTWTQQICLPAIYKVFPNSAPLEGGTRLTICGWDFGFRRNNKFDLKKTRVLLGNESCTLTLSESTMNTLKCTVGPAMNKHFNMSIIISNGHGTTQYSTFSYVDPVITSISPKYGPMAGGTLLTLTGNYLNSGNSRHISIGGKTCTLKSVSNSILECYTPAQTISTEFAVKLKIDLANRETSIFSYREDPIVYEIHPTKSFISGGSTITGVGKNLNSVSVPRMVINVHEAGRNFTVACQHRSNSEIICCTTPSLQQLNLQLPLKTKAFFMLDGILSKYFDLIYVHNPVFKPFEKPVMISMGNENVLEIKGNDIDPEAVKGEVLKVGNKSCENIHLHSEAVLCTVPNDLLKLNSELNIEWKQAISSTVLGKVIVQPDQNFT

B1: huAbF46-H4-A5 (antibody, IgG1, V domains shown)
VH: EVQLVESGGGLVQPGGSLRLSCAASGFTFTDYYMSWVRQAPGKGLEWLGFIRNKANGYTTEYSASVKGRFTISRDNSKNTLYLQMNSLRAEDTAVYYCARDNWFAYWGQGTLVTVSS
VL: DIQMTQSPSSLSASVGDRVTITCKSSQSLLASGNQNNYLAWHQQKPGKAPKMLIIWASTRVSGVPSRFSGSGSGTDFTLTISSLQPEDFATYYCQQSYSRPFTFGQGTKVEIKR
notes: IgG1 constant region with U6-HC7 hinge, human kappa light chain; also called IgG from clone L3-5
Kd (human c-Met protein [1]): 0.42 nM
koff (human c-Met protein [1]): 0.00024 s⁻¹
kon (human c-Met protein [1]): 572000 M⁻¹ s⁻¹
BrdU assay on NCI-H441 cells (agonism); safety improved by, at 10 ug/ml [2]: 21%
degree of degradation of c-Met (total c-Met ELISA, MKN45 cells, 5 ug/ml, 24 h), increase compared to huAbF46 [2]: ~28%

B2: huAbF46-H4-A1 (antibody, V domains shown)
VH: EVQLVESGGGLVQPGGSLRLSCAASGFTFTDYYMSWVRQAPGKGLEWLGFIRNKANGYTTEYSASVKGRFTISRDNSKNTLYLQMNSLRAEDTAVYYCARDNWFAYWGQGTLVTVSS
VL: DIQMTQSPSSLSASVGDRVTITCKSSQSLLASGNQNNYLAWHQQKPGKAPKMLIIWASTRVSGVPSRFSGSGSGTDFTLTISSLQPEDFATYYCQQSYSRPYTFGQGTKVEIKR
notes: also called IgG from clone L3-1
fold improvement of affinity (against huAbF46) (human c-Met protein [3]): 37 times
BrdU assay on NCI-H441 cells (agonism); safety improved by, at 10 ug/ml [2]: 25%
degree of degradation of c-Met (total c-Met ELISA, MKN45 cells, 5 ug/ml, 24 h), increase compared to huAbF46 [2]: ~37%

B3: huAbF46-H4-A2 (antibody, IgG1, V domains shown)
VH: EVQLVESGGGLVQPGGSLRLSCAASGFTFTDYYMSWVRQAPGKGLEWLGFIRNKANGYTTEYSASVKGRFTISRDNSKNTLYLQMNSLRAEDTAVYYCARDNWFAYWGQGTLVTVSS
VL: DIQMTQSPSSLSASVGDRVTITCKSSQSLLASGNQNNYLAWHQQKPGKAPKMLIIWASTRVSGVPSRFSGSGSGTDFTLTISSLQPEDFATYYCGQSYSRPLTFGQGTKVEIKR
notes: IgG1 constant region with U6-HC7 hinge, human kappa light chain; also called IgG from clone L3-2
fold improvement of affinity (against huAbF46) (human c-Met protein [3]): 5 times
Kd (human c-Met protein [1]): 0.5 nM
koff (human c-Met protein [1]): 0.000253 s⁻¹
kon (human c-Met protein [1]): 502000 M⁻¹ s⁻¹
BrdU assay on NCI-H441 cells (agonism); safety improved by, at 10 ug/ml [2]: 28%
degree of degradation of c-Met (total c-Met ELISA, MKN45 cells, 5 ug/ml, 24 h), increase compared to huAbF46 [2]: ~28%

B4: huAbF46-H4-A3 (antibody, IgG1, V domains shown)
VH: EVQLVESGGGLVQPGGSLRLSCAASGFTFTDYYMSWVRQAPGKGLEWLGFIRNKANGYTTEYSASVKGRFTISRDNSKNTLYLQMNSLRAEDTAVYYCARDNWFAYWGQGTLVTVSS
VL: DIQMTQSPSSLSASVGDRVTITCKSSQSLLASGNQNNYLAWHQQKPGKAPKMLIIWASTRVSGVPSRFSGSGSGTDFTLTISSLQPEDFATYYCAQSYSHPFSFGQGTKVEIKR
notes: IgG1 constant region with U6-HC7 hinge, human kappa light chain; also called IgG from clone L3-3
Kd (human c-Met protein [1]): 0.34 nM
koff (human c-Met protein [1]): 0.000143 s⁻¹
kon (human c-Met protein [1]): 419000 M⁻¹ s⁻¹
BrdU assay on NCI-H441 cells (agonism); safety improved by, at 10 ug/ml [2]: 13%
degree of degradation of c-Met (total c-Met ELISA, MKN45 cells, 5 ug/ml, 24 h), increase compared to huAbF46 [2]: ~28%
